Among the data in article PMC7943567 (2021) are Kd and koff values, retold here.

Assay [1] addresses Fc proteins lasso-grafted with MET-binding peptides (SPR, Fig. 1c). Briefly: SPR; aMD4 grafted on Fc; divalent, not true 1:1 affinity. (In general: In SPR one partner is held on a chip, and binding of the other changes the refractive index at the surface.)
The next assay has as its target aMD5 (free peptide). Briefly: SPR; value cited from earlier paper.
For another assay, the target named is aMD4 (free peptide). Briefly: SPR; value cited from earlier paper.
The target in assay [2] is UG2 fusion of the MET-binding peptide aMD4 (human). Briefly: SPR.
For assay [3], the target named is UG2 fusion of the MET-binding peptide aMD5 (human). Briefly: SPR.
Assay [4] deals with T1, Fc proteins lasso-grafted with PlxnB1-binding peptides (SPR, Fig. 1c). Briefly: SPR; PB1m6A9 grafted on Fc; divalent, not true 1:1 affinity.
For another assay, the target named is PB1m6A9 (free peptide). Briefly: SPR; value cited from earlier paper.
In the next assay the target is PB1m7 (free peptide). Briefly: SPR; value cited from earlier paper.
The target in assay [5] is UG2 fusion of the PlxnB1-binding peptide PB1m7 (human). Briefly: SPR.
Assay [6] concerns the target UG2-m6A9, single-chain tandem uteroglobin dimer grafted with the affinity-matured m6A9 peptide (human, UniProt P11684). Briefly: SPR.
The target of assay [7] is UG2-m6, single-chain tandem uteroglobin dimer with the PB1m6 peptide fused between two UG monomers (human, UniProt P11684). Briefly: SPR.
Assay [8] deals with T1, Fc proteins lasso-grafted with …. Briefly: SPR; PB1m7 grafted on Fc; divalent, not true 1:1 affinity.

B1: human MET ectodomain fragment (residues 1-931) with C-terminal biotin acceptor sequence (domain or fragment)
chain: ECKEALAKSEMNVNMKYQLPNFTAETPIQNVILHEHHIFLGATNYIYVLNEEDLQKVAEYKTGPVLEHPDCFPCQDCSSKANLSGGVWKDNINMALVVDTYYDDQLISCGSVNRGTCQRHVFPHNHTADIQSEVHCIFSPQIEEPSQCPDCVVSALGAKVLSSVKDRFINFFVGNTINSSYFPDHPLHSISVRRLKETKDGFMFLTDQSYIDVLPEFRDSYPIKYVHAFESNNFIYFLTVQRETLDAQTFHTRIIRFCSINSGLHSYMEMPLECILTEKRKKRSTKKEVFNILQAAYVSKPGAQLARQIGASLNDDILFGVFAQSKPDSAEPMDRSAMCAFPIKYVNDFFNKIVNKNNVRCLQHFYGPNHEHCFNRTLLRNSSGCEARRDEYRTEFTTALQRVDLFMGQFSEVLLTSISTFIKGDLTIANLGTSEGRFMQVVVSRSGPSTPHVNFLLDSHPVSPEVIVEHTLNQNGYTLVITGKKITKIPLNGLGCRHFQSCSQCLSAPPFVQCGWCHDKCVRSEECLSGTWTQQICLPAIYKVFPNSAPLEGGTRLTICGWDFGFRRNNKFDLKKTRVLLGNESCTLTLSESTMNTLKCTVGPAMNKHFNMSIIISNGHGTTQYSTFSYVDPVITSISPKYGPMAGGTLLTLTGNYLNSGNSRHISIGGKTCTLKSVSNSILECYTPAQTISTEFAVKLKIDLANRETSIFSYREDPIVYEIHPTKSFISGGSTITGVGKNLNSVSVPRMVINVHEAGRNFTVACQHRSNSEIICCTTPSLQQLNLQLPLKTKAFFMLDGILSKYFDLIYVHNPVFKPFEKPVMISMGNENVLEIKGNDIDPEAVKGEVLKVGNKSCENIHLHSEAVLCTVPNDLLKLNSELNIEWKQAISSTVLGKVIVQPDQNF
modifications: biotin on the biotin acceptor sequence (BirA-mediated)
One may read the Kd as the equilibrium constant for the complex coming apart. Usually koff stands for a measure of how fast the partners let go of each other. Read a high koff as a short-lived complex. Turning to B1, the Kd in assay [1] was determined as 4.5 nM; in the assay with aMD5 (free peptide), 2.3 nM; with aMD4 (free peptide), 2.4 nM; in assay [2], 91.6 nM; in assay [3], 211 nM. For the same molecule, the koff came out at 0.0007 s⁻¹ in assay [1]; 0.011 s⁻¹ with aMD5 (free peptide); 0.003 s⁻¹ with aMD4 (free peptide); 0.004 s⁻¹ in [2]; 0.019 s⁻¹ in assay [3].

B2: human PlxnB1 ectodomain fragment (residues 1-535) with C-terminal biotin acceptor sequence (domain or fragment)
chain: LQPLPPTAFTPNGTYLQHLARDPTSGTLYLGATNFLFQLSPGLQLEATVSTGPVLDSRDCLPPVMPDECPQAQPTNNPNQLLLVSPGALVVCGSVHQGVCEQRRLGQLEQLLLRPERPGDTQYVAANDPAVSTVGLVAQGLAGEPLLFVGRGYTSRGVGGGIPPITTRALWPPDPQAAFSYEETAKLAVGRLSEYSHHFVSAFARGASAYFLFLRRDLQAQSRAFRAYVSRVCLRDQHYYSYVELPLACEGGRYGLIQAAAVATSREVAHGEVLFAAFSSAAPPTVGRPPSAAAGASGASALCAFPLDEVDRLANRTRDACYTREGRAEDGTEVAYIEYDVNSDCAQLPVDTLDAYPCGSDHTPSPMASRVPLEATPILEWPGIQLTAVAVTMEDGHTIAFLGDSQGQLHRVYLGPGSDGHPYSTQSIQQGSAVSRDLTFDGTFEHLYVMTQSTLLKVPVASCAQHLDCASCLAHRDPYCGWCVLLGRCSRRSECSRGQGPEQWLWSFQPELGCLQ
modifications: biotin on the biotin acceptor sequence (BirA-mediated)
Turning to B2, the Kd worked out at 0.023 nM in [4]; 0.28 nM in the assay with PB1m6A9 (free peptide); 275 nM with PB1m7 (free peptide); 3250 nM in assay [5]; 8.26 nM in assay [6]; 45.8 nM in [7]. Also, binding in [8] was characterised by a dissociation constant (Kd) of 61.4 nM. The koff in assay [4] stood at 0.0004 s⁻¹; with PB1m6A9 (free peptide) it was 0.0021 s⁻¹; with PB1m7 (free peptide), 0.01 s⁻¹; in assay [5] it was 0.051 s⁻¹; in assay [6] it was 0.0014 s⁻¹; in assay [7] it was 0.0041 s⁻¹. In assay [8], the off-rate constant (koff) is 0.055 s⁻¹.
